B1: GpH7-A5/GpH7-B3 variant K326_14T/GpL16-k0 (antibody, human IgG1, kappa)
heavy 1: not shown
heavy 2: not shown
light: DIVMTQSPLSLPVTPGEPASISCQASESLVHSNRNTYLHWYLQKPGQSPQLLIYKVSNRFSGVPDRFSGSGSGTDFTLKISRVEAEDVGVYYCSQNTHVPPTFGQGTKVEIERTVAAPSVFIFPPSDEQLKSGTASVVCLLNNFYPREAKVQWKVDNALQSGNSQESVTEQDSKDSTYSLSSTLTLSKADYEKHKVYACEVTHQGLSSPVTKSFNRGEC
notes: He Ab; copies: 1 + 1 + 2
B2: GpH7-A5/GpH7-B3 variant L234_02A/GpL16-k0 (antibody, human IgG1, kappa)
heavy 1: not shown
heavy 2: not shown
light: DIVMTQSPLSLPVTPGEPASISCQASESLVHSNRNTYLHWYLQKPGQSPQLLIYKVSNRFSGVPDRFSGSGSGTDFTLKISRVEAEDVGVYYCSQNTHVPPTFGQGTKVEIERTVAAPSVFIFPPSDEQLKSGTASVVCLLNNFYPREAKVQWKVDNALQSGNSQESVTEQDSKDSTYSLSSTLTLSKADYEKHKVYACEVTHQGLSSPVTKSFNRGEC
notes: He Ab; copies: 1 + 1 + 2
B3: GpH7-A5/GpH7-B3 variant K326_16H/GpL16-k0 (antibody, human IgG1, kappa)
heavy 1: not shown
heavy 2: not shown
light: DIVMTQSPLSLPVTPGEPASISCQASESLVHSNRNTYLHWYLQKPGQSPQLLIYKVSNRFSGVPDRFSGSGSGTDFTLKISRVEAEDVGVYYCSQNTHVPPTFGQGTKVEIERTVAAPSVFIFPPSDEQLKSGTASVVCLLNNFYPREAKVQWKVDNALQSGNSQESVTEQDSKDSTYSLSSTLTLSKADYEKHKVYACEVTHQGLSSPVTKSFNRGEC
notes: He Ab; copies: 1 + 1 + 2
B4: GpH7-A5/GpH7-B3 variant K326_19Q/GpL16-k0 (antibody, human IgG1, kappa)
heavy 1: not shown
heavy 2: not shown
light: DIVMTQSPLSLPVTPGEPASISCQASESLVHSNRNTYLHWYLQKPGQSPQLLIYKVSNRFSGVPDRFSGSGSGTDFTLKISRVEAEDVGVYYCSQNTHVPPTFGQGTKVEIERTVAAPSVFIFPPSDEQLKSGTASVVCLLNNFYPREAKVQWKVDNALQSGNSQESVTEQDSKDSTYSLSSTLTLSKADYEKHKVYACEVTHQGLSSPVTKSFNRGEC
notes: He Ab; copies: 1 + 1 + 2
B5: GpH7-A5/GpH7-B3 variant K326_18N/GpL16-k0 (antibody, human IgG1, kappa)
heavy 1: not shown
heavy 2: not shown
light: DIVMTQSPLSLPVTPGEPASISCQASESLVHSNRNTYLHWYLQKPGQSPQLLIYKVSNRFSGVPDRFSGSGSGTDFTLKISRVEAEDVGVYYCSQNTHVPPTFGQGTKVEIERTVAAPSVFIFPPSDEQLKSGTASVVCLLNNFYPREAKVQWKVDNALQSGNSQESVTEQDSKDSTYSLSSTLTLSKADYEKHKVYACEVTHQGLSSPVTKSFNRGEC
notes: He Ab; copies: 1 + 1 + 2
B6: GpH7-A5/GpH7-B3 variant K326_20W/GpL16-k0 (antibody, human IgG1, kappa)
heavy 1: not shown
heavy 2: not shown
light: DIVMTQSPLSLPVTPGEPASISCQASESLVHSNRNTYLHWYLQKPGQSPQLLIYKVSNRFSGVPDRFSGSGSGTDFTLKISRVEAEDVGVYYCSQNTHVPPTFGQGTKVEIERTVAAPSVFIFPPSDEQLKSGTASVVCLLNNFYPREAKVQWKVDNALQSGNSQESVTEQDSKDSTYSLSSTLTLSKADYEKHKVYACEVTHQGLSSPVTKSFNRGEC
notes: He Ab; copies: 1 + 1 + 2
B7: GpH7-A5/GpH7-B3 variant L234_01G/GpL16-k0 (antibody, human IgG1, kappa)
heavy 1: not shown
heavy 2: not shown
light: DIVMTQSPLSLPVTPGEPASISCQASESLVHSNRNTYLHWYLQKPGQSPQLLIYKVSNRFSGVPDRFSGSGSGTDFTLKISRVEAEDVGVYYCSQNTHVPPTFGQGTKVEIERTVAAPSVFIFPPSDEQLKSGTASVVCLLNNFYPREAKVQWKVDNALQSGNSQESVTEQDSKDSTYSLSSTLTLSKADYEKHKVYACEVTHQGLSSPVTKSFNRGEC
notes: He Ab; copies: 1 + 1 + 2
B8: GpH7-A5/GpH7-B3 variant K326_15Y/GpL16-k0 (antibody, human IgG1, kappa)
heavy 1: not shown
heavy 2: not shown
light: DIVMTQSPLSLPVTPGEPASISCQASESLVHSNRNTYLHWYLQKPGQSPQLLIYKVSNRFSGVPDRFSGSGSGTDFTLKISRVEAEDVGVYYCSQNTHVPPTFGQGTKVEIERTVAAPSVFIFPPSDEQLKSGTASVVCLLNNFYPREAKVQWKVDNALQSGNSQESVTEQDSKDSTYSLSSTLTLSKADYEKHKVYACEVTHQGLSSPVTKSFNRGEC
notes: He Ab; copies: 1 + 1 + 2

Molecular target: T1, FcγRIIIa extracellular domain, C-terminal His tag (human, UniProt P08637 17-208)
T1 construct: extracellular domain; also called 3a
Assay: SPR, binding activity relative to GpH7-A5/GpH7-B3/GpL16-k0 (=100)

T1 sequence (P08637 other isoform, or with tags, fused parts or gaps): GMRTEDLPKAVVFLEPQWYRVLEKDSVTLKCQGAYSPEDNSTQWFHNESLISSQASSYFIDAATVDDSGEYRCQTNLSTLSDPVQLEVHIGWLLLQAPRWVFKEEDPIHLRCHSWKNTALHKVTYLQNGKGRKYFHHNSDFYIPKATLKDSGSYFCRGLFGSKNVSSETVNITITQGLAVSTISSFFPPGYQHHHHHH

Binder | He/Con 3a
B1 | 140%
B2 | 69.7%
B3 | 106%
B4 | 117%
B5 | 134%
B6 | 93.7%
B7 | 55.8%
B8 | 124%
